{
  "source": "patent US20190194350A1",
  "about": "(UNIVERSITAT STUTTGART, published 2019)",
  "binders": {"B1": {"name": "IgG 3-43 (antibody)", "heavy": "not shown", "light": "QAGLTQPPAVSVAPGQTASITCGRDNIGSRSVHWYQQKPGQAPVLVVYDDSDRPAGIPERFSGSNYENTATLTISRVEAGDEADYYCQVWGITSDHVVFGGGTKLTVLCGQPKAAPSVTLFPPSSEELQANKATLVCLISDFYPGAVTVAWKADSSPVKAGVETTTPSKQSNNKYAASSYLSLTPEQWKSHRSYSCQVTHEGSTVEKTVAPTECS", "notes": "also called 3-43-IgG; 3-43 IgG"}},
  "key": {"[1]": {"target": "T1, HER3 on HER3-expressing tumor cells (human, UniProt P21860 20-1342)", "T1 construct": "Endogenous HER3 of human tumor cell lines (MCF-7, FaDu, BT474, A431, NCI-N87, A549, SKBR-3, Colo205, HCT-116, A375 and melanoma lines); also called cellular receptor HER3; cell surface expressed HER3", "experiment": "flow cytometry on FaDu cells, PE-labeled secondary antibody; the small table prints no unit, the axis is Concentration [nM] [panel FADU]"}, "[2]": {"target": "T1, HER3 on HER3-expressing tumor cells", "experiment": "flow cytometry, FaDu cells; FaDu cells"}, "[3]": {"target": "T1, HER3 on HER3-expressing tumor cells", "experiment": "flow cytometry, NCI-N87 cells"}, "[4]": {"target": "T1, HER3 on HER3-expressing tumor cells", "experiment": "flow cytometry, MCF-7 cells"}, "[5]": {"target": "T1, HER3 on HER3-expressing tumor cells", "experiment": "flow cytometry, FaDu cells; FaDu cells; Table 3 experiment, alongside scDb hu225x3-43-Fc"}, "[6]": {"target": "T1, HER3 on HER3-expressing tumor cells", "experiment": "flow cytometry, FaDu cells"}, "[7]": {"target": "T1, HER3 on HER3-expressing tumor cells", "experiment": "flow cytometry on MCF-7 cells, PE-labeled secondary antibody; the small table prints no unit, the axis is Concentration [nM] [panel MCF7]"}, "[8]": {"target": "T1, HER3 on HER3-expressing tumor cells", "experiment": "flow cytometry, A431 cells"}, "[9]": {"target": "T2, HER3-Fc fusion protein (Fc fusion protein of the extracellular domain of human HER3, limits not stated at the … (human, UniProt P21860 20-643))", "T2 construct": "also called wild-type HER3-Fc; human HER3-Fc fusion protein; not shown: human Fc region", "experiment": "quartz crystal microbalance (Attana), IgG 3-43 on chip, HER3-Fc as analyte (bivalent)"}, "[10]": {"target": "T2, HER3-Fc fusion protein (Fc fusion …)", "experiment": "quartz crystal microbalance (Attana), IgG 3-43 on chip, HER3-Fc as analyte"}, "[11]": {"target": "T1, HER3 on HER3-expressing tumor cells", "experiment": "flow cytometry, BT474 cells"}, "[12]": {"target": "T1, HER3 on HER3-expressing tumor cells", "experiment": "flow cytometry, MCF-7 cells; MCF-7 cells"}, "[13]": {"target": "T1, HER3 on HER3-expressing tumor cells", "experiment": "flow cytometry on BT474 cells, PE-labeled secondary antibody; the small table prints no unit, the axis is Concentration [nM] [panel BT474]"}, "[14]": {"target": "T1, HER3 on HER3-expressing tumor cells", "experiment": "flow cytometry, A549 cells"}, "[15]": {"target": "T3, HER3-His (HER3 aa 27-599 of the extracellular domain fused C-terminally with a hexahistidyl-tag) (human, UniProt P21860 27-599)", "T3 construct": "also called soluble His-tagged HER3; His-tagged extracellular domain of HER3; not shown: C-terminal hexahistidyl-tag", "experiment": "quartz crystal microbalance (Attana), IgG 3-43 on chip, HER3-his as analyte"}, "[16]": {"target": "T4, mouse HER3-Fc fusion protein (extracellular region of mouse HER3 fused to a human Fc region) (mouse, UniProt Q61526 20-641)", "T4 construct": "extracellular domain; not shown: human Fc region", "T4 sequence (Q61526 20-641)": "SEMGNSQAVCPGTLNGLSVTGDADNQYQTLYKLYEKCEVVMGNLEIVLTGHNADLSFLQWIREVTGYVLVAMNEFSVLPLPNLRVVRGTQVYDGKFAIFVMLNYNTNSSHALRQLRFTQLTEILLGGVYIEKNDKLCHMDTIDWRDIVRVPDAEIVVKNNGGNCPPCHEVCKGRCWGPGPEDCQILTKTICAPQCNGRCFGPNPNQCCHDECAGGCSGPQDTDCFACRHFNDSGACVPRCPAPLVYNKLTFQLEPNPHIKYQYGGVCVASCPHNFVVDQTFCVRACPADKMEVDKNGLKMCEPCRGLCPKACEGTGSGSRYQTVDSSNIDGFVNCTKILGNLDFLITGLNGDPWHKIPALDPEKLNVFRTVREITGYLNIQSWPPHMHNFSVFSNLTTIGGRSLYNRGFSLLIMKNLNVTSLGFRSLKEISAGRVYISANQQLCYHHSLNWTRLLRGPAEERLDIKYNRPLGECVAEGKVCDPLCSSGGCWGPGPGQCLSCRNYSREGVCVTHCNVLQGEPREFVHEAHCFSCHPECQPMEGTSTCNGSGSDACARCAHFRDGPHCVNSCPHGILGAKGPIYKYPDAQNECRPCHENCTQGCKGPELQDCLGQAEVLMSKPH", "experiment": "ELISA, coated mouse HER3-Fc, serial dilution of IgG 3-43, absorption at 450 nm"}, "[17]": {"target": "T1, HER3 on HER3-expressing tumor cells", "experiment": "flow cytometry, SKBR-3 cells; SKBR-3 cells"}, "[18]": {"target": "T5, Fc fusion protein containing HER3 DI-DII and a short part of DIII (aa 20-358) (human, UniProt P21860 20-358)", "T5 construct": "not shown: IgG1 Fc part", "experiment": "ELISA, coated HER3-Fc fragments at 10 µg/ml, anti-human Fab-HRP"}, "[19]": {"target": "T6, Fc fusion protein containing HER3 DI-DIII (aa 20-531; lacking DIV) (human, UniProt P21860 20-531)", "T6 construct": "also called DI-DIII Fc; not shown: IgG1 Fc part", "experiment": "ELISA, coated HER3-Fc fragments at 10 µg/ml, anti-human Fab-HRP"}, "[20]": {"target": "T7, HER3 fragment aa 458-643 Fc fusion protein (part of DIII and the entire DIV) (human, UniProt P21860 458-643)", "T7 construct": "not shown: IgG1 Fc part", "experiment": "ELISA, coated HER3-Fc fragments at 10 µg/ml, anti-human Fab-HRP"}, "[21]": {"target": "T8, HER3 fragment aa 395-643 Fc fusion protein (part of DIII and the entire DIV) (human, UniProt P21860 395-643)", "T8 construct": "not shown: IgG1 Fc part", "experiment": "ELISA, coated HER3-Fc fragments at 10 µg/ml, anti-human Fab-HRP"}, "[22]": {"target": "T9, HER3 fragment aa 359-643 Fc fusion protein (part of DIII and the entire DIV) (human, UniProt P21860 359-643)", "T9 construct": "not shown: IgG1 Fc part", "experiment": "ELISA, coated HER3-Fc fragments at 10 µg/ml, anti-human Fab-HRP"}, "[23]": {"target": "T10, HER3 DIV-Fc (aa 532-643) (human, UniProt P21860 532-643)", "T10 construct": "not shown: IgG1 Fc part", "experiment": "ELISA, coated HER3-Fc fragments at 10 µg/ml, anti-human Fab-HRP"}, "[24]": {"target": "T11, HER3-ECD protein (Homo sapiens (Human), UniProt P21860 20-643)", "T11 construct": "also called receptor-ECD protein", "experiment": "ELISA, immobilized HER3-ECD"}, "[25]": {"target": "T1, HER3 on HER3-expressing tumor cells", "experiment": "flow cytometry on NCI-N87 cells, PE-labeled secondary antibody; the small table prints no unit, the axis is Concentration [nM] [panel NCI-N87]"}, "[26]": {"target": "T1, HER3 on HER3-expressing tumor cells", "experiment": "flow cytometry, FaDu cells (text; Table 3 prints 0.30)"}, "[27]": {"target": "T1, HER3 on HER3-expressing tumor cells", "experiment": "flow cytometry on A431 cells, PE-labeled secondary antibody; the small table prints no unit, the axis is Concentration [nM] [panel A431]"}, "[28]": {"target": "T12, HER3 fragment aa 329-550 Fc fusion protein (human, UniProt P21860 329-550)", "T12 construct": "not shown: IgG1 Fc part", "experiment": "ELISA, coated HER3-Fc fragments"}, "[29]": {"target": "T13, HER3 fragment aa 359-587 Fc fusion protein (human, UniProt P21860 359-587)", "T13 construct": "not shown: IgG1 Fc part", "experiment": "ELISA, coated HER3-Fc fragments"}, "[30]": {"target": "T14, HER3 fragment aa 20-550 Fc fusion protein (DI-III plus part of DIV) (human, UniProt P21860 20-550)", "T14 construct": "not shown: IgG1 Fc part", "experiment": "ELISA, coated HER3-Fc fragments"}, "[31]": {"target": "T1, HER3 on HER3-expressing tumor cells", "experiment": "flow cytometry on A549 cells, PE-labeled secondary antibody; the small table prints no unit, the axis is Concentration [nM] [panel A549]"}},
  "data": [
    {"binder": "B1", "values": [
      {"measurement": "EC50", "setting": "[1]", "result": 0.0302, "unit": "nM"},
      {"measurement": "EC50", "setting": "[2]", "result": 0.003, "unit": "nM"},
      {"measurement": "EC50", "setting": "[3]", "result": 0.027, "unit": "nM"},
      {"measurement": "EC50", "setting": "[4]", "result": 0.037, "unit": "nM"},
      {"measurement": "EC50", "setting": "[5]", "result": 0.3, "unit": "nM"},
      {"measurement": "EC50", "setting": "[6]", "result": 0.03, "unit": "nM"},
      {"measurement": "EC50", "setting": "[7]", "result": 0.0365, "unit": "nM"},
      {"measurement": "EC50", "setting": "[8]", "result": 0.045, "unit": "nM"},
      {"measurement": "Kd", "setting": "[9]", "result": 0.22, "unit": "nM"},
      {"measurement": "koff", "setting": "[10]", "result": 0.000103, "unit": "s⁻¹"},
      {"measurement": "kon", "setting": "[10]", "result": 468000, "unit": "M⁻¹ s⁻¹"},
      {"measurement": "EC50", "setting": "[11]", "result": 0.074, "unit": "nM"},
      {"measurement": "EC50", "setting": "[12]", "result": 0.021, "unit": "nM"},
      {"measurement": "EC50", "setting": "[13]", "result": 0.0743, "unit": "nM"},
      {"measurement": "EC50", "setting": "[14]", "result": 0.053, "unit": "nM"},
      {"measurement": "koff", "setting": "[15]", "result": 0.00696, "unit": "s⁻¹"},
      {"measurement": "kon", "setting": "[15]", "result": 622000, "unit": "M⁻¹ s⁻¹"},
      {"measurement": "EC50 (read off the curve)", "setting": "[16]", "result": "~3", "unit": "nM"},
      {"measurement": "EC50", "setting": "[17]", "result": 0.022, "unit": "nM"},
      {"measurement": "binding result", "setting": "[18]", "result": "no binding"},
      {"measurement": "binding result", "setting": "[19]", "result": "no binding"},
      {"measurement": "binding result", "setting": "[20]", "result": "no binding"},
      {"measurement": "binding result", "setting": "[21]", "result": "no binding"},
      {"measurement": "binding result", "setting": "[22]", "result": "no binding"},
      {"measurement": "binding result", "setting": "[23]", "result": "no binding"},
      {"measurement": "EC50", "setting": "[24]", "result": 0.33, "unit": "nM"},
      {"measurement": "EC50", "setting": "[25]", "result": 0.0266, "unit": "nM"},
      {"measurement": "EC50", "setting": "[26]", "result": 0.006, "unit": "nM"},
      {"measurement": "EC50", "setting": "[27]", "result": 0.0445, "unit": "nM"},
      {"measurement": "binding result", "setting": "[28]", "result": "no binding"},
      {"measurement": "binding result", "setting": "[29]", "result": "no binding"},
      {"measurement": "binding result", "setting": "[30]", "result": "no binding"},
      {"measurement": "EC50", "setting": "[31]", "result": 0.0536, "unit": "nM"}
    ]}
  ]
}
